Measured values published in the supplement of paper PMC7877785.
± gives the uncertainty stated by the source.

Test: self-splicing fitness, log relative to wild type (ln ratio); higher = more splicing; Tetrahymena group I intron in knt gene, E. coli kanamycin selection, DiMSum; sequences stand for … in CUCUCU…GGAGGGAAAAGUUAUCAGGCAUGCACCUGGUAGCUAGUCUUUAAACCAAUAGAUUGCAUCGGUUUAAAAGGCAAGACCGUCAAAUUGCGGGAAAGGGGUCAACAGCCGUUCAGUACCAAGUCUCAGGGGAAACUUUGAGAUGGCCUUGCAAAGGGUAUGGUAAUAAGCUGACGGACAUGGUCCUAACCACGCAGCCAAGUCCUAAGUCAACAGAUCUUCUGUUGAUAUGGAUGCAGUUCACAGACUAAAUGUCGGUCGGGGAAGAUGUAUUCUUCUCAUAAGAUAUAGUCGGACCUCUCCUUAAUGGGAGCUAGCGGAUGAAGUGAUGCAACACUGGAGCCGCUGGGAACUAAUUUGUAUGCGAAAGUAUAUUGAUUAGUUUUGGAGUACUCGUGGUCG
Method in brief: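 The eight P1ex-region nucleotides of an intron in the knt kanamycin-resistance gene on pET-22b(+) were all randomised and the library put into E. coli BL21(DE3). Six replicate transformations were grown overnight at 37°C or 30°C on LB agar with or without 25 μg/mL kanamycin, together with 100 μg/mL carbenicillin, 50 μM IPTG and 0.2% rhamnose. Colonies were pooled and amplicon-sequenced on an Illumina HiSeq 2500. Fitness from DiMSum is the error-weighted combination of wild-type-normalised replicate fold changes, kanamycin over none.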

Sequence | self-splicing fitness (ln) (30 °C) | self-splicing fitness (ln) (37 °C)
UCCUAGCAAUAUUACGAGUC | -2.71 ± 0.31 | 
UCCUAGCAAUAUUACGAUCA | -2.01 ± 0.1 | -1.36 ± 0.096
UCCUAGCAAUAUUACGAUGA | 0.139 ± 0.083 | 0.437 ± 0.098
UCCUAGCAAUAUUACGCAGC |  | -0.949 ± 0.4
UCCUAGCAAUAUUACGCAUG | -2.52 ± 0.28 | 
UCCUAGCAAUAUUACGCGAU | -3.18 ± 0.28 | -2.65 ± 0.5
UCCUAGCAAUAUUACGCGCG | -4.03 ± 0.29 | -2.45 ± 0.31
UCCUAGCAAUAUUACGCGUA | -2.95 ± 0.23 | -1.53 ± 0.14
UCCUAGCAAUAUUACGCUGG | -3.84 ± 0.42 | -2.29 ± 0.32
UCCUAGCAAUAUUACGGAGG | -2.63 ± 0.17 | -1.73 ± 0.2
UCCUAGCAAUAUUACGGAUC | -3.39 ± 0.23 | -2.53 ± 0.26
UCCUAGCAAUAUUACGGAUU | -4.22 ± 0.23 | -2.36 ± 0.21
UCCUAGCAAUAUUACGGCGG | -3.94 ± 0.27 | -2.92 ± 0.2
UCCUAGCAAUAUUACGGGCC | -2.79 ± 0.12 | -1.17 ± 0.11
UCCUAGCAAUAUUACGGUGG | -3.31 ± 0.15 | -2.32 ± 0.13
UCCUAGCAAUAUUACGUAAC | -3.53 ± 0.24 | -2.07 ± 0.27
UCCUAGCAAUAUUACGUAGU | -2.62 ± 0.15 | -1.29 ± 0.18
UCCUAGCAAUAUUACGUAUG | -4.13 ± 0.3 | -2.62 ± 0.26
UCCUAGCAAUAUUACGUCAA |  | -1.52 ± 0.39
UCCUAGCAAUAUUACGUCGC | -4.08 ± 0.42 | -2.58 ± 0.36
UCGAAGCAAUAUUACGACCU | -1.51 ± 0.16 | -1.1 ± 0.18
UCGAAGCAAUAUUACGACUC |  | 0.412 ± 0.47
UCGAAGCAAUAUUACGAUAG | -2.95 ± 0.25 | -1.14 ± 0.18
UCGAAGCAAUAUUACGAUGG | -0.763 ± 0.079 | -0.538 ± 0.13
UCGAAGCAAUAUUACGCAAU |  | -2.03 ± 0.27

Sequence | self-splicing fitness (ln) (30 °C) | self-splicing fitness (ln) (37 °C)
UCGAAGCAAUAUUACGCGAG | -1.47 ± 0.074 | -0.905 ± 0.1
UCGAAGCAAUAUUACGCGGC | -3.35 ± 0.32 | -2.87 ± 0.36
UCGAAGCAAUAUUACGGAAA | -1.95 ± 0.49 | -0.855 ± 0.25
UCGAAGCAAUAUUACGGUCA | -1.83 ± 0.11 | -0.525 ± 0.12
UCGAAGCAAUAUUACGGUGU | -2.05 ± 0.094 | -1.62 ± 0.15
UCGAAGCAAUAUUACGUAGA | -1.81 ± 0.14 | -0.562 ± 0.15
UCGAAGCAAUAUUACGUCAG | -0.27 ± 0.089 | -0.968 ± 0.12
UCGAAGCAAUAUUACGUCUA | 0.0685 ± 0.078 | 0.296 ± 0.077
UCGAAGCAAUAUUACGUGAG | -0.469 ± 0.053 | -0.72 ± 0.088
UCGAAGCAAUAUUACGUUUU | -3.28 ± 0.14 | -3.09 ± 0.29
UCGCAGCAAUAUUACGACCA | -1.83 ± 0.13 | -1.07 ± 0.14
UCGCAGCAAUAUUACGACGA | -1.67 ± 0.17 | -0.408 ± 0.14
UCGCAGCAAUAUUACGACUA | 0.0221 ± 0.14 | -0.0509 ± 0.14
UCGCAGCAAUAUUACGAUCG | -0.735 ± 0.092 | -0.359 ± 0.12
UCGCAGCAAUAUUACGCAUG | -3.79 ± 0.33 | -2.56 ± 0.27
UCGCAGCAAUAUUACGCCAU |  | -1.96 ± 0.4
UCGCAGCAAUAUUACGCCGA | -1.83 ± 0.19 | -2.26 ± 0.22
UCGCAGCAAUAUUACGCCUC |  | -2.36 ± 0.39
UCGCAGCAAUAUUACGCGUG | -3.34 ± 0.15 | -1.44 ± 0.14
UCGCAGCAAUAUUACGCUAU | -5.08 ± 0.36 | -3 ± 0.17
UCGCAGCAAUAUUACGGCAG | -0.619 ± 0.1 | -0.379 ± 0.11
UCGCAGCAAUAUUACGGCCG | -0.546 ± 0.12 | -0.522 ± 0.18
UCGCAGCAAUAUUACGGGCG | -2.7 ± 0.13 | -0.856 ± 0.12
UCGCAGCAAUAUUACGGGUG | -1.16 ± 0.053 | -1.03 ± 0.074
UCGCAGCAAUAUUACGGUAA | -0.786 ± 0.061 | -0.563 ± 0.071
